Consider ten molecules from patent US20200102387A1 (CELGENE, published 2020).

Residue numbers refer to the chain shown, from its start. Like-named read-outs stand apart in the source and are kept apart here.

Holding throughout (test): BLI Octet, antigen-Fc on biosensor
The target in experiment [1] is T1, human SIRPα v1-Fc (SIRPα1 extracellular domain fused to human IGHG1_Fc) (human, UniProt P78324 31-373; P0DOX5 223-449 = IgG part).
T1 construct: also called V1 (e.g. SIRPα1); SIRPα V1: DLN

Experiment [2] addresses T2, human SIRPα v2-Fc (SIRPα2 extracellular domain fused to human IGHG1_Fc) (human, UniProt P78324 31-373; P0DOX5 223-449 = IgG part).
T2 construct: as m38; also called V2 (e.g. SIRPα2); SIRPα V2:ESE

Experiment [3] deals with T3, human SIRPα v3-Fc (SIRPα3 extracellular domain fused to human IGHG1_Fc) (human, UniProt P78324 31-373; P0DOX5 223-449 = IgG part).
T3 construct: as m38; also called V3 (e.g. SIRPα3)

In experiment [4] the target is T4, human SIRPα v5-Fc (SIRPα5 extracellular domain fused to human IGHG1_Fc) (human, UniProt P78324 31-373; P0DOX5 223-449 = IgG part).
T4 construct: as m38; also called V5 (e.g. SIRPα5)

The target of experiment [5] is T5, human SIRPα v6-Fc (SIRPα6 extracellular domain fused to human IGHG1_Fc) (human, UniProt P78324 31-373; P0DOX5 223-449 = IgG part).
T5 construct: as m38; also called V6 (e.g. SIRPα6)

In experiment [6] the target is T6, human SIRPβ-Fc (human).
T6 construct: a signal peptide may be part of the entry

For experiment [7], the target named is T7, human SIRPγ-Fc (human).
T7 construct: a signal peptide may be part of the entry

Experiment [8] deals with T8, cyno SIRPα-Fc (cynomolgus).
T8 construct: a signal peptide may be part of the entry

In experiment [9] the target is T9, mouse SIRPα-Fc (mouse).
T9 construct: a signal peptide may be part of the entry; also called Ms; Ms SIRPα-Fc
T9 sequence (chain, as listed by the source limits assumed): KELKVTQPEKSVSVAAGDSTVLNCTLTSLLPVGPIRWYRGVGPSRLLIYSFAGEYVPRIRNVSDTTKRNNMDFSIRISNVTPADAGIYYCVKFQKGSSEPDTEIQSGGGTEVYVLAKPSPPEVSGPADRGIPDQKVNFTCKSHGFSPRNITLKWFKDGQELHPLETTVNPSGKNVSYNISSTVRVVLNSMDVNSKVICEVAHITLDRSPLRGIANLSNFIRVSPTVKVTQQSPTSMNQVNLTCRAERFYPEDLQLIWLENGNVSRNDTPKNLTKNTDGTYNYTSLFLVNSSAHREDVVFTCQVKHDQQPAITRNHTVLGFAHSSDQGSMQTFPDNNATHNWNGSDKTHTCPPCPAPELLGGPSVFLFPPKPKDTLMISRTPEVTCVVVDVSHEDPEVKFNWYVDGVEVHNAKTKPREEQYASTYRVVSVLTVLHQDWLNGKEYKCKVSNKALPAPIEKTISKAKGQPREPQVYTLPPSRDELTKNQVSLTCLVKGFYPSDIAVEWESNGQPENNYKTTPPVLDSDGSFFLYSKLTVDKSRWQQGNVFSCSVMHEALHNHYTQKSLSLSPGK

Experiment [10] addresses T9, mouse SIRPα-Fc. This is another data set of the same source.
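For koff in this document: antigen captured on the biosensor tip and then immersed in solutions of the test antibodies, which act as the analyte.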
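For kon in this document: antigen captured on the biosensor tip and then immersed in solutions of the test antibodies, which act as the analyte.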
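For result in this document: antigen captured on the biosensor tip and then immersed in solutions of the test antibodies, which act as the analyte.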

B1: SIRPAB-13 (antibody, human IgG1, kappa, V domains shown)
VH: QVQLVQSGAEVKKPGASVKVSCKASGYTFHGYGISWVRQAPGQGLEWMGWISAYSGETNYAQKLQGRVTMTTDTSTSTAYMELRSLRSDDTAVYYCAREAGSSWYDFDLWGRGTLVTVSS
VL: DIQMTQSPSSVSASVGDRVTITCRASQGISSWLAWYQQKPGKAPKLLIYAASNLQSGVPSRFSGSGSGTDFTLTISSLQPEDFATYYCQQGASFPITFGGGTKVEIKR
For B1, the Kd was 1.65 nM in [1]; 17.2 nM in experiment [2]; 0.83 nM in experiment [3]; 7.73 nM in [4]; 2.71 nM in [5]; 4.52 nM in [6]. Also, the dissociation constant Kd in experiment [7] was determined as 4.12 nM; in experiment [8] it was 14.9 nM. Further, the dissociation rate constant (koff) in experiment [1] is 0.00205 s⁻¹; in experiment [2], 0.0172 s⁻¹; in experiment [3], 0.000965 s⁻¹; in experiment [4], 0.00892 s⁻¹; in experiment [5] it was 0.00364 s⁻¹; in [6], 0.00544 s⁻¹. The koff in experiment [7] is 0.00558 s⁻¹; in [8], 0.0197 s⁻¹. Also, the association rate constant (kon) was 1.24e+06 M⁻¹ s⁻¹ in experiment [1]; 1e+06 M⁻¹ s⁻¹ in [2]; 1.17e+06 M⁻¹ s⁻¹ in experiment [3]; 1.16e+06 M⁻¹ s⁻¹ in experiment [4]; 1.35e+06 M⁻¹ s⁻¹ in experiment [5]; 1.21e+06 M⁻¹ s⁻¹ in experiment [6]. The values for the kon in experiment [7] and in experiment [8] were 1.35e+06 M⁻¹ s⁻¹ and 1.32e+06 M⁻¹ s⁻¹, respectively. Also, the binding result in [9] is “no binding”.

B2: SIRPAB-1 (antibody, human IgG1, kappa, V domains shown)
VH: QVQLQESGPGLVKPSQTLSLTCTVSGGSISSGGYYWSWIRQHPGKGLEWIGSIYYSGSTYYNPSLKSRVTISVDTSKNQFSLKLSSVTAADTAVYYCAREGYHSGMDVWGQGTTVTVSS
VL: DIQMTQSPSSLSASVGDRVTITCQASQDISNYLNWYQQKPGKAPKLLIYDASNLATGVPSRFSGSGSGTDFTFTISSLQPEDIATYYCQQFAYLPWTFGGGTKVEIKR
Consider B2, for which the Kd came to 44.2 nM in experiment [2], 54.9 nM in experiment [5], 4.61 nM in experiment [6] and 1.43 nM in experiment [7].

B3: SIRPAB-6 (antibody, human IgG1, kappa, V domains shown)
VH: QVQLQESGPGLVKPSQTLSLTCTVSGGSISSGGYYWSWIRQHPGKGLEWIGYIYYSGSTYYNPSLKSRVTISVDTSKNQFSLKLSSVTAADTAVYYCAREGLDGSYGSSAWGQGTLVTVSS
VL: B2 VL with M4L, A55E, W96Y
B3: the binding result in experiment [2], in experiment [5] and in experiment [9] was “no binding” each time. Binding in experiment [7] was put at a Kd of 8.36 nM.

B4: SIRPAB-19 (antibody, human IgG1, kappa, V domains shown)
VH: B2 VH with S52A, S58P, T59I, A98S, R99K
VL: B2 VL with Q27D, N31D, L54I, A55E, T56D
With B4, in experiment [10], the Kd came out at 1.02 nM.

B5: SIRPAB-5 (antibody, human IgG1, kappa, V domains shown)
VH: B2 VH with G33P, Y34A, S52T, Y60F
VL: B2 VL
Consider B5, for which the Kd was found to be 0.165 nM in experiment [1]; 27.5 nM in experiment [2]; 0.15 nM in [6]; 0.154 nM in [7]; 7.51 nM in experiment [9].

B6: SIRPAB-4 (antibody, human IgG1, kappa, V domains shown)
VH: B2 VH with G33S, Y34P, S52Y, Y55A, S58F
VL: B2 VL
As to B6, the Kd in experiment [1] turned out to be 0.45 nM; in experiment [2], 18.2 nM; in experiment [6], 1 nM; in experiment [7] it was 0.144 nM; in [8], 18 nM; in experiment [9], 72.8 nM.

B7: SIRPAB-20 (antibody, human IgG1, kappa, V domains shown)
VH: B2 VH with S52A, S58P, T59I, A98S, R99K
VL: B2 VL with N31D, S52D, A55E
As for B7, the affinity in experiment [10], expressed as Kd, was 0.39 nM.

B8: SIRPAB-2 (antibody, human IgG1, kappa, V domains shown)
VH: B2 VH with Y34D, S37A, S52Y, Y55P, S58F
VL: B2 VL
B8: the Kd amounted to 10.7 nM in experiment [2]; 11.9 nM in [5]; 0.89 nM in [6]; 0.14 nM in [7]; 19.3 nM in experiment [8].

B9: SIRPAB-18 (antibody, human IgG1, kappa, V domains shown)
VH: B2 VH with S52A, S58P, T59I, A98S, R99K
VL: B2 VL
The molecule B9 came in with a Kd in [10] of 2.2 nM.

B10: SIRPAB-3 (antibody, human IgG1, kappa, V domains shown)
VH: B2 VH with Y34W, S37Q, S52T, Y60F
VL: B2 VL
Regarding B10, the Kd was 0.2 nM in experiment [1]; 0.22 nM in experiment [6]; 0.118 nM in [7]; 7.95 nM in experiment [8]; 12.6 nM in experiment [9].
